Source: US20190202900A1 (INFLARX, published 2019)

Target: T1, human endogenous C5a (eC5a) generated in human zymosan-activated plasma (human, UniProt P01031 678-751)
T1 sequence: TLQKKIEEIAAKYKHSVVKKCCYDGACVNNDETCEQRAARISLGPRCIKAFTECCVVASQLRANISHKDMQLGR
Experiment: cell-based or functional assay

B1: IFX-1 (antibody, IgG4, V domains shown)
VH: QVQLQQSGPQLVRPGTSVKISCKASGYSFTTFWMDWVKQRPGQGLEWIGRIDPSDSESRLDQRFKDRATLTVDKSSSTVYMQLSSPTSEDSAVYYCARGNDGYYGFAYWGQGTLVTVSS
VL: DIVLTQSPASLAVSLGQRATISCKASQSVDYDGDSYMKWYQQKPGQPPKLLIYAASNLQSGIPARFSGSGSGTDFTLNIHPVEEEDAATYYCQQSNEDPYTFGGGTKLEIK
- blocking of eC5a-induced CD11b up-regulation on human granulocytes (ZAP-CD11b assay), Ab:Ag ratios 1:1 and 2:1: ≤ 98%
- decrease of CD11b expression on human granulocytes (ZAP-CD11b assay, flow cytometry MFI), Ab:Ag molar ratio 0.5:1: > 80%
